In patent US20160244525A1:
Changes are numbered by the printed parent chain.

B1: 2B.1.3.10 (antibody, human IgG1, kappa, V domains shown)
VH: EVQLVESGGGLVQPGGSLRLSCAASGFPFTSQGISWVRQAPGKGLEWVGRTHLGDGSTNYADSVKGRFTISADTSKNTAYLQMNSLRAEDTAVYYCARTYGIYDTYDKYTEYVMDYWGQGTLVTVSS
VL: DIQMTQSPSSLSASVGDRVTITCRASQDVDTSLAWYKQKPGKAPKLLIYSASFLYSGVPSRFSGSGSGTDFTLTISSLQPEDFATYYCQQSTGHPQTFGQGTKVEIKR
B2: 2B.1.3.8 (antibody, human IgG1, kappa, V domains shown)
VH: B1 VH with Q32L, T105I, D107E
VL: B1 VL
B3: 2B.1.3.12 (antibody, human IgG1, kappa, V domains shown)
VH: B1 VH with Q32T, K108M
VL: B1 VL
B4: 2B.1.3.6 (antibody, human IgG1, kappa, V domains shown)
VH: B1 VH with P28T, Q32T, K108E
VL: B1 VL
B5: 2B.1.3.4 (antibody, human IgG1, kappa, V domains shown)
VH: B1 VH with P28T, Q32T, T105I, D107G, K108G
VL: B1 VL
B6: 2B.1.3.2 (antibody, human IgG1, kappa, V domains shown)
VH: B1 VH with P28T, Q32T, K108N
VL: B1 VL
B7: 2B.1.1 (antibody, human IgG1, kappa, V domains shown)
VH: B1 VH with P28T, Q32T, T51Y, H52W, L53A, G54W, T105L, D107V, K108D
VL: B1 VL
B8: 2B.1.88 (antibody, human IgG1, kappa, V domains shown)
VH: B1 VH with P28T, Q32T, T51I, H52W, L53M, G54F, D55T, T105L, D107V, K108D
VL: B1 VL
B9: 2B.1.32 (antibody, human IgG1, kappa, V domains shown)
VH: B1 VH with P28T, Q32T, T51W, H52V, L53G, G54F, D55T, T105L, D107V, K108D
VL: B1 VL
B10: 2B.1.95 (antibody, human IgG1, kappa, V domains shown)
VH: B1 VH with P28T, Q32T, T51L, H52I, L53F, G54F, D55T, T105L, D107V, K108D
VL: B1 VL
B11: 2B.1.73 (antibody, human IgG1, kappa, V domains shown)
VH: B1 VH with P28T, Q32T, T51M, H52I, L53F, G54Y, D55N, T105L, D107V, K108D
VL: B1 VL
B12: 2B.1.86 (antibody, human IgG1, kappa, V domains shown)
VH: B1 VH with P28T, Q32T, T51L, H52S, L53F, G54W, D55T, T105L, D107V, K108D
VL: B1 VL
B13: 2B.1.49 (antibody, human IgG1, kappa, V domains shown)
VH: B1 VH with P28T, Q32T, T51L, H52S, L53F, G54F, D55S, T105L, D107V, K108D
VL: B1 VL
B14: 2B.1.9 (antibody, human IgG1, kappa, V domains shown)
VH: B1 VH with P28T, Q32T, T51Y, L53P, G54Y, D55L, T105L, D107V, K108D
VL: B1 VL

The binders below were run against FGFR2-IIIb (human) (UniProt P21802) (assay: SPR, IgG).
FGFR2-IIIb (human), sequence (P21802 other isoform, or with tags, fused parts or gaps limits assumed): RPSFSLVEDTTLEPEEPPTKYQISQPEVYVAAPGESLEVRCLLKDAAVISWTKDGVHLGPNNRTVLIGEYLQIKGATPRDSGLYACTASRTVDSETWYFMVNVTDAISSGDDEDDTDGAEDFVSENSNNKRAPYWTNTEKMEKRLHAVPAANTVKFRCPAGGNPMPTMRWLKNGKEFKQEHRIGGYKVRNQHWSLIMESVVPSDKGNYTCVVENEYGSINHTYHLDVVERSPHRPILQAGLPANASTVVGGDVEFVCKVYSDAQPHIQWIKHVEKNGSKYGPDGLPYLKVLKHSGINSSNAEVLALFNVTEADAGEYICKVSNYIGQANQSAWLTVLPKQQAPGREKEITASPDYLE

Binder | Kd [nM]
B1 | 2.9
B2 | 1.4
B3 | 3
B4 | 5.9
B5 | 5.8
B6 | 6.6

What follows are binders tested against FGFR3-IIIb (human) (assay: SPR).
FGFR3-IIIb (human), sequence (chain, as listed by the source limits assumed): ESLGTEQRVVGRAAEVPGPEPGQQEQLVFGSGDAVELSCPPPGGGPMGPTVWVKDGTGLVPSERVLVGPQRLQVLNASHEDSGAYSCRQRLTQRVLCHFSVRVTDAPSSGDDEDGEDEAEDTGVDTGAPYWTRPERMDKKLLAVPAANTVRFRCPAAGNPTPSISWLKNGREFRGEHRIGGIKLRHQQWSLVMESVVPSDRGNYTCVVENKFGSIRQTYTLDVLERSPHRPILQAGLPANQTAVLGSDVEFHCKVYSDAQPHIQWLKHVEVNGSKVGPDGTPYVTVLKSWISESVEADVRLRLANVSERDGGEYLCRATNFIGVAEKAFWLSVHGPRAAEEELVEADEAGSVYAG

Binder | Kd [nM]
B3 | 0.5

These binders were tested against FGFR2-IIIb (human) (UniProt P21802) (assay: SPR).

Binder | Kd [nM]
B7 | 0.29
B3 | 3

What follows are binders tested against FGFR3-IIIb (human) (assay: blocking ELISA: FGFR3-IIIb-Fc captured on an anti-human Fc plate, antibody titrated, FGF-1 (with heparin) is the blocked ligand, bound FGF-1 read as OD450).

Binder | IC50 (read off the curve) [nM]
B1 | 1 to 2
B3 | 1 to 2

The binders below were run against FGFR2-IIIb (human) (UniProt P21802) (assay: blocking ELISA: FGFR2-IIIb-Fc captured on an anti-human Fc plate, antibody titrated, FGF-7 (with heparin) is the blocked ligand, bound FGF-7 read as OD450).

Binder | IC50 (read off the curve) [nM]
B1 | 2
B3 | 2

These binders were tested against FGFR3-IIIb (human) (assay: SPR (Biacore T100), IgG captured by anti-human Fc, FGFR flowed).

Binder | Kd [nM]
B1 | 0.11
B8 | 0.05
B7 | 0.09
B9 | 0.06
B10 | 0.19
B3 | 0.5
B11 | 0.09

Each binder was assayed against FGFR2-IIIb (human) (UniProt P21802) in the same assay as above.

Binder | Kd [nM]
B1 | 2.9
B8 | 0.64
B7 | 0.29
B9 | 1.2
B10 | 1.8
B12 | 1.3
B3 | 3
B13 | 1.3
B14 | 1.4
B11 | 1.4
